Source: the RNAGym collection of RNA variant scans (doi:10.7554/elife.80360)

B1: CPEB3 Ribozyme (parent)
chain: GGGGGCCACAGCAGAAGCGUUCACGUCGCGGCCCCUGUCAGAUUCUGGUGAAUCUGCGAAUUCUGCUGU

Variants of: B1
Experiment: self-cleavage, relative activity (ratio to wild type); higher = more cleavage; co-transcriptional
With G37A U55G the self-cleavage was 0.234.
For U36G U46G, the self-cleavage was 0.181.
With U36G U46A the self-cleavage was 0.349.
For C39A C45G, the self-cleavage was 0.659.
A40C G58A gave a self-cleavage of 0.659.
With G37A G56A the self-cleavage was 0.249.
Work on G37A G56U yielded a self-cleavage of 0.257.
For U38A A60U, the self-cleavage was 0.453.
With C39A U64G the self-cleavage was 0.61.
Work on C39A U64A yielded a self-cleavage of 0.467.
For G37A C54G, the self-cleavage was 0.221.
In the case of U38G A51U, the self-cleavage is reported as 0.295.
For U38G A51G, the self-cleavage was 0.258.
With C39A U61A the self-cleavage was 0.601.
For U38C U55G, the self-cleavage was 0.242.
With C39A U69C the self-cleavage was 1.01.
In the case of C39A U69A, the self-cleavage is reported as 0.908.
U36G U62A showed a self-cleavage of 0.131.
For U36G U62G, the self-cleavage was 0.238.
Variant G37U U62C has a self-cleavage of 0.299.
U38C A59C gave a self-cleavage of 0.306.
For U38C A59G, the self-cleavage was 1.01.
C39A G47C showed a self-cleavage of 0.945.
Work on U38C U69G yielded a self-cleavage of 1.05.
Work on G37C G65C yielded a self-cleavage of 0.255.
For U38C U46G, the self-cleavage was 0.921.
Work on U36G U53G yielded a self-cleavage of 0.214.
U36G U53A gave a self-cleavage of 0.273.
G37C U46G gave a self-cleavage of 0.25.
With G37C U46A the self-cleavage was 0.236.
C39A A51U showed a self-cleavage of 0.728.
Variant U38C G48U has a self-cleavage of 1.
In the case of U38C G48C, the self-cleavage is reported as 0.986.
Work on A40C C63A yielded a self-cleavage of 0.321.
In the case of U38A U67C, the self-cleavage is reported as 0.943.
Variant G37A G50A has a self-cleavage of 0.304.
For U38G G68U, the self-cleavage was 0.273.
Variant U38G G68C has a self-cleavage of 0.175.
For U38G G47C, the self-cleavage was 0.201.
C39G G48C showed a self-cleavage of 0.945.
Variant U38G A59U has a self-cleavage of 0.228.
With U38C A60U the self-cleavage was 0.331.
Work on C39G U46C yielded a self-cleavage of 0.903.
Variant U38C G50U has a self-cleavage of 0.952.
For C39U U61G, the self-cleavage was 0.577.
With U38G U46G the self-cleavage was 0.308.
Work on C39G A40G yielded a self-cleavage of 0.812.
Work on U38C A51U yielded a self-cleavage of 0.935.
In the case of G37A G48C, the self-cleavage is reported as 0.265.
G37A G48A gave a self-cleavage of 0.357.
U38A A42G showed a self-cleavage of 0.755.
U38A A42C showed a self-cleavage of 0.892.
Work on C39G U49G yielded a self-cleavage of 0.994.
A40C G41U showed a self-cleavage of 0.22.
Variant G37C G48C has a self-cleavage of 0.226.
With U38G U44A the self-cleavage was 0.149.
Work on C39U C57A yielded a self-cleavage of 0.34.
In the case of C39U C57G, the self-cleavage is reported as 0.403.
C39A G58C showed a self-cleavage of 0.907.
In the case of C39U A42U, the self-cleavage is reported as 0.736.
With A40C the self-cleavage was 0.702.
For U38G A52U, the self-cleavage was 0.156.
With C39A C66G the self-cleavage was 0.535.
C39U U64A showed a self-cleavage of 0.616.
In the case of G37A A52C, the self-cleavage is reported as 0.282.
With C39U G68A the self-cleavage was 0.99.
Variant A40C C57U has a self-cleavage of 0.287.
Variant C39U G41C has a self-cleavage of 0.445.
G37U C57G showed a self-cleavage of 0.209.
Variant G37U G50A has a self-cleavage of 0.284.
For G37U G50C, the self-cleavage was 0.315.
Work on U36G U49A yielded a self-cleavage of 0.237.
For U36G U49G, the self-cleavage was 0.197.
For U38G G48A, the self-cleavage was 0.21.
U36G U69C showed a self-cleavage of 0.493.
For U36G U69G, the self-cleavage was 0.45.
Work on U38G G58U yielded a self-cleavage of 0.294.
G37A G68C showed a self-cleavage of 0.371.
With U38G G65C the self-cleavage was 0.161.
G37A A51G showed a self-cleavage of 0.332.
With G37A A51C the self-cleavage was 0.334.
Work on U36G U44C yielded a self-cleavage of 0.118.
U38A A52C showed a self-cleavage of 0.898.
With C39U U53A the self-cleavage was 0.582.
In the case of G37A U49A, the self-cleavage is reported as 0.285.
Work on G37A U49C yielded a self-cleavage of 0.303.
Variant C39A A42U has a self-cleavage of 0.551.
U38C U62A showed a self-cleavage of 0.791.
With G37C U64C the self-cleavage was 0.162.
G37C U64A showed a self-cleavage of 0.267.
For C39A G41C, the self-cleavage was 0.396.
C39A G41A gave a self-cleavage of 0.383.
For U36G U38A, the self-cleavage was 0.214.
Variant U38A has a self-cleavage of 0.929.
For U38G, the self-cleavage was 0.242.
U38C showed a self-cleavage of 0.961.
Variant G37C G47C has a self-cleavage of 0.18.
U38C C45G gave a self-cleavage of 0.92.
Work on G37C C54G yielded a self-cleavage of 0.164.
Variant C39U G47A has a self-cleavage of 0.948.
For C39U G47U, the self-cleavage was 0.973.
Work on G37C A59U yielded a self-cleavage of 0.242.
Variant U38A G56C has a self-cleavage of 0.466.
Work on U38A G56U yielded a self-cleavage of 0.875.
U38C U49A gave a self-cleavage of 0.955.
Variant A40C U67C has a self-cleavage of 0.539.
U38A C39A showed a self-cleavage of 0.748.
For U38A C39G, the self-cleavage was 0.994.
With U38C C54A the self-cleavage was 0.61.
Work on G37U U69G yielded a self-cleavage of 0.354.
With G37U U69A the self-cleavage was 0.358.
U38A U69G gave a self-cleavage of 0.971.
In the case of U38A U69C, the self-cleavage is reported as 1.03.
Work on C39G C63G yielded a self-cleavage of 0.513.
For G37U U53A, the self-cleavage was 0.195.
With G37A U69A the self-cleavage was 0.422.
G37A U69G gave a self-cleavage of 0.538.
U38G C45G showed a self-cleavage of 0.27.
Variant A40C U44G has a self-cleavage of 0.419.
For A40C U44C, the self-cleavage was 0.368.
In the case of A40C U44A, the self-cleavage is reported as 0.417.
Work on G37C U69A yielded a self-cleavage of 0.336.
G37C U69C gave a self-cleavage of 0.428.
Variant U38C U53C has a self-cleavage of 0.763.
U38C U53A showed a self-cleavage of 0.883.
U38C U53G showed a self-cleavage of 0.682.
In the case of C39G G68U, the self-cleavage is reported as 0.988.
G37C U43G gave a self-cleavage of 0.202.
U38A A40C showed a self-cleavage of 0.703.
For U38A A40G, the self-cleavage was 0.808.
A40C G50C gave a self-cleavage of 0.424.
In the case of A40C G50A, the self-cleavage is reported as 0.423.
Work on A40C A51C yielded a self-cleavage of 0.359.
In the case of U38G A60C, the self-cleavage is reported as 0.137.
Variant C39A A59G has a self-cleavage of 0.911.
Variant C39A A59U has a self-cleavage of 0.446.
In the case of A40C G65U, the self-cleavage is reported as 0.354.
Variant C39U G65C has a self-cleavage of 0.438.
A40C U55G gave a self-cleavage of 0.951.
Work on G37U U55A yielded a self-cleavage of 0.187.
In the case of U38C G47C, the self-cleavage is reported as 0.938.
With G37C U67G the self-cleavage was 0.188.
G37C U67A gave a self-cleavage of 0.274.
G37A U53A showed a self-cleavage of 0.303.
G37A U53G showed a self-cleavage of 0.222.
Work on A40C A59U yielded a self-cleavage of 0.381.
For C39A U62G, the self-cleavage was 0.428.
C39A U62C gave a self-cleavage of 0.595.
Variant G37A U67C has a self-cleavage of 0.321.
Work on G37A U67G yielded a self-cleavage of 0.334.
U38A G58C gave a self-cleavage of 0.921.
G37U A52C showed a self-cleavage of 0.281.
U36G U55G gave a self-cleavage of 0.245.
With U36G U55C the self-cleavage was 0.177.
C39G U43C showed a self-cleavage of 0.75.
With C39G C57A the self-cleavage was 0.303.
C39G C57G showed a self-cleavage of 0.361.
C39G C57U gave a self-cleavage of 0.327.
Work on G37C A42G yielded a self-cleavage of 0.213.
Work on G37C A42C yielded a self-cleavage of 0.237.
In the case of G37C A60G, the self-cleavage is reported as 0.237.
A40C G48A gave a self-cleavage of 0.882.
For A40C G48C, the self-cleavage was 0.716.
G37U C45A showed a self-cleavage of 0.295.
G37A C39G gave a self-cleavage of 0.277.
For C39G C66A, the self-cleavage was 0.531.
For G37A C63G, the self-cleavage was 0.258.
